Assay results reported in patent US20210030857A1 (NGM BIOPHARMACEUTICALS, published 2021).

T1: human beta klotho protein (soluble, used in Biacore) (human, UniProt Q86Z14 53-997, limits assumed)
T1 construct: also called HuKLB; huKLB
T1 sequence: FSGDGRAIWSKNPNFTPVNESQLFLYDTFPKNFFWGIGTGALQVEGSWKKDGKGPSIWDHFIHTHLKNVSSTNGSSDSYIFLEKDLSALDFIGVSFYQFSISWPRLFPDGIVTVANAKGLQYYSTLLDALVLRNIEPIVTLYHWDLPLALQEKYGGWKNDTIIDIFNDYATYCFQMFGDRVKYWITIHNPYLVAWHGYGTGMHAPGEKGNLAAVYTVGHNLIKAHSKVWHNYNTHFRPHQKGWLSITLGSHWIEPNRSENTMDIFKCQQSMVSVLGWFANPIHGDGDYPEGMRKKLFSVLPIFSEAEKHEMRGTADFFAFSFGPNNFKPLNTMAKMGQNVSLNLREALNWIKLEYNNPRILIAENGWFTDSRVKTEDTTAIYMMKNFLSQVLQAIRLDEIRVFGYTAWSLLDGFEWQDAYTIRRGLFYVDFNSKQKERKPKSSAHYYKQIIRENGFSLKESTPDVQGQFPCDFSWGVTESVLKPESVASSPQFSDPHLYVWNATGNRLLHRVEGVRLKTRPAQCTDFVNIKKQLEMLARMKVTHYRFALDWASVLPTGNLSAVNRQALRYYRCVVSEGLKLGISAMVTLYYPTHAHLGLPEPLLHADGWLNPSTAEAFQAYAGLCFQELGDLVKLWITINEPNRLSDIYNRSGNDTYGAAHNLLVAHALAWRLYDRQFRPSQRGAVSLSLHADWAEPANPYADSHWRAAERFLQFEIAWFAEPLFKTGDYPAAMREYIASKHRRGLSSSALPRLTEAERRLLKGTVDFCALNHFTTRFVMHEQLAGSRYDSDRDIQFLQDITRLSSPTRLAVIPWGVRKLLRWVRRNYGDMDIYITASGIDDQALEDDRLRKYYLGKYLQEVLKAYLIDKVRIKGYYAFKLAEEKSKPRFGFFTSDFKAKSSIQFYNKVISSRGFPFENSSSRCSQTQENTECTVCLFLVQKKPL

T2: cynomolgus beta klotho expressed on cells (cynomolgus monkey (Macaca fascicularis), UniProt Q86Z14 1-1044 (human entry))
T2 construct: also called Cynomolgus KLB
T2 chain: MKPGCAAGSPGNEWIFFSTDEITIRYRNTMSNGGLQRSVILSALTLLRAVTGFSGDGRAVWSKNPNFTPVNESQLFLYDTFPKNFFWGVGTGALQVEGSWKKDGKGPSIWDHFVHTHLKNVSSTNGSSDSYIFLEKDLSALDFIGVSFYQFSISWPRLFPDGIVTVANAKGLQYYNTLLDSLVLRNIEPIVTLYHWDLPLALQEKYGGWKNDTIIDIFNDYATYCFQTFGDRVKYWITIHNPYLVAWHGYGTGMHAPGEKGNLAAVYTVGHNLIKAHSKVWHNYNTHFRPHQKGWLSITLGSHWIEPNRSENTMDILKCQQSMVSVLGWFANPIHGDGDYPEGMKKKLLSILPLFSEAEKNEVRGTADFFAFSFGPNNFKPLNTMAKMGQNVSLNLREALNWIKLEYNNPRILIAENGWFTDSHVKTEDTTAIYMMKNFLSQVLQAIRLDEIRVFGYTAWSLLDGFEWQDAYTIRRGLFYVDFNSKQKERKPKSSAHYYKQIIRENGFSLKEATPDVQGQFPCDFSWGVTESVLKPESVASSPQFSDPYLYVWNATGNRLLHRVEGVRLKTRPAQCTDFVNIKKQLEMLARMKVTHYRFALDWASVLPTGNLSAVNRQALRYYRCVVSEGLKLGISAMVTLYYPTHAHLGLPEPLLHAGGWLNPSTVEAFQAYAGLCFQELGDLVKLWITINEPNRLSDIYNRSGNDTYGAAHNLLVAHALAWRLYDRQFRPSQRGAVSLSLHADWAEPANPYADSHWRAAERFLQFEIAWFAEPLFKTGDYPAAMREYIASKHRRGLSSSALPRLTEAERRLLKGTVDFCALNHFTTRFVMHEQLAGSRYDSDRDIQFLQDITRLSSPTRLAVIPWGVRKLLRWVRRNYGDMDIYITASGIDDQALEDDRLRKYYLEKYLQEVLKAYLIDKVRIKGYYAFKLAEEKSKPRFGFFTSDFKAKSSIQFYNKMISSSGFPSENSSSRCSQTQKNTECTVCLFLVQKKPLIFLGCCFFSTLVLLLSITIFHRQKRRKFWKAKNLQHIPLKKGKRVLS

B1: antibody 5H23 (antibody, V domains shown)
VH: QVQLQQSGPELVKPGALVKISCKASGYTFTSYDINWVKQRPGQGLEWIGWIYPGDGSTKYNEKFKGKATLTADKSSRTAYMQLSSLTSENSAVYFCARSDYYGSRSFAYWGQGTLVTVSA
VL: DIVLTQSPASLAVSLGQRATISCRASKSVSTSGYVYMHWNQQKPGQPPKLLIYLASYLESGVPARFSGSGSGTDFTLNIHPVEEEDAAIYYCQHSRDLTFPFGGGTKLEIK
notes: Murine monoclonal antibody from hybridoma; also called 5H23-Alexa647 (labelled form)
B2: negative control antibody, anti-keyhole limpet hemocyanin (KLH) antibody (antibody, human IgG1, kappa, V domains shown)
VH: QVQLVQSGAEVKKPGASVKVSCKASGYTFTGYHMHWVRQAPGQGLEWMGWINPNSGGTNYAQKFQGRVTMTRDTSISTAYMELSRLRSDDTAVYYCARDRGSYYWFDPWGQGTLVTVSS
VL: DIQMTQSPSSLSASVGDRVTITCRASQGIRNDLGWYQQKPGKAPKRLIYAASSLQSGVPSRFSGSGSGTEFTLTISSLQPEDFATYYCLQHNSYPLTFGGGTKVEIKR
notes: also called Neg; Control; anti-KLH antibody

How the values were obtained:
[1] = biological target: T1, human beta klotho protein (soluble, …); test: Biacore SPR (as in Example 2)
[2] = biological target: T2, cynomolgus beta klotho expressed on …; test: FACS on transfected Expi293 cells
Experimental: Studies were performed in order to localize the binding site on human KLB of anti-beta klotho antibodies in the 5H23 epitope bin, including 5H23 as described in Example 3, with sequences shown in Tables 1-10 and FIGS. 1-3, and human anti-beta klotho antibodies in the 5H23 epitope bin, such as humanized 5H23 antibodies (e.g., VH SEQ ID NO: 271 and VL SEQ ID NO: 276). For example, FACS-based binding assays for domain mapping were performed on Expi293 cells (Life Technologies, A14635) that were transiently transfected with plasmids encoding variants of KLB: human, mouse, cynomolgus, a chimeric version in which the KL1 domain sequence of mouse KLB (M1-F506) replaces the KL1 domain of human KLB (M1-F508) to create mouse-human KLB (SEQ ID NO: 376), and a second chimera in which the human KL1 sequence (M1-F508) replaces the KL1 domain of mouse KLB (M1-F506) to create human-mouse KLB (SEQ ID NO: 374). Additionally, the expression vector pYD7 harboring no KLB sequence was transfected as a negative control.
In some studies, binding of a purified sample of a humanized 5H23 antibody (e.g., VH SEQ ID NO: 271 and VL SEQ ID NO: 276) to KLB variants was determined by FACS analysis. […] After washing with PBS/1% BSA/0.1% azide, transfected cells were then co-incubated with labeled anti-human Fc (Jackson lmmunoresearch) for 30 minutes at 4° C. After washing with PBS/1% BSA/0.1% azide, cells were acquired on flow cytometer (FACS Calibur) and analyzed by cytometric software (FlowJo). To display the resulting data, graphs plotting the number of cells as a function of fluorescence intensity were generated, and the median fluorescence intensity (MFI) was determined for each sample as shown in Table 30.

Binder | Kd [1] | binding result [2]
B1 | 0.05 nM | 
B2 |  | no binding (tested: 1 µg/ml)
